Experimental data from publication PMC4239642, “trans-Acting Arginine Residues in the AAA+ Chaperone ClpB Allosterically Regulate the Activity through Inter- and Intradomain Communication*” (The Journal of Biological Chemistry, 2014).

B1: ClpB NBD1-M P221C (domain or fragment, Thermus thermophilus, UniProt Q9RA63 141-534, looked up)
chain: VQTEHAESTYNALEQYGIDLTRLAAEGKLDPVIGRDEEIRRVIQILLRRTKNNPVLIGEPGVGKTAIVEGLAQRIVKGDVCEGLKGKRIVSLQMGSLLAGAKYRGEFEERLKAVIQEVVQSQGEVILFIDELHTVVGAGKAEGAVDAGNMLKPALARGELRLIGATTLDEYREIEKDPALERRFQPVYVDEPTVEETISILRGLKEKYEVHHGVRISDSAIIAAATLSHRYITERRLPDKAIDLIDEAAARLRMALESAPEEIDALERKKLQLEIEREALKKEKDPDSQERLKAIEAEIAKLTEEIAKLRAEWEREREILRKLREAQHRLDEVRREIELAERQYDLNRAAELRYGELPKLEAEVEALSEKLRGARFVRLEVTEEDIAEIVSRWT
notes: ClpB from Thermus thermophilus, NBD1 and M-domain, amino acids 141-534; source: E. coli BL21 (DE3) RIL, purified
B2: ClpB NBD1-M Q184C (domain or fragment)
chain: not shown
notes: as for B1
B3: full-length ClpB P221C (natural protein, Thermus thermophilus, UniProt Q9RA63 1-854, looked up)
chain: MNLERWTQAAREALAQAQVLAQRMKHQAIDLPHLWAVLLKDERSLAWRLLEKAGADPKALKELQERELARLPKVEGAEVGQYLTSRLSGALNRAEALMEELKDRYVAVDTLVLALAEATPGLPGLEALKGALKELRGGRTVQTEHAESTYNALEQYGIDLTRLAAEGKLDPVIGRDEEIRRVIQILLRRTKNNPVLIGEPGVGKTAIVEGLAQRIVKGDVCEGLKGKRIVSLQMGSLLAGAKYRGEFEERLKAVIQEVVQSQGEVILFIDELHTVVGAGKAEGAVDAGNMLKPALARGELRLIGATTLDEYREIEKDPALERRFQPVYVDEPTVEETISILRGLKEKYEVHHGVRISDSAIIAAATLSHRYITERRLPDKAIDLIDEAAARLRMALESAPEEIDALERKKLQLEIEREALKKEKDPDSQERLKAIEAEIAKLTEEIAKLRAEWEREREILRKLREAQHRLDEVRREIELAERQYDLNRAAELRYGELPKLEAEVEALSEKLRGARFVRLEVTEEDIAEIVSRWTGIPVSKLLEGEREKLLRLEEELHKRVVGQDEAIRAVADAIRRARAGLKDPNRPIGSFLFLGPTGVGKTELAKTLAATLFDTEEAMIRIDMTEYMEKHAVSRLIGAPPGYVGYEEGGQLTEAVRRRPYSVILFDEIEKAHPDVFNILLQILDDGRLTDSHGRTVDFRNTVIILTSNLGSPLILEGLQKGWPYERIRDEVFKVLQQHFRPEFLNRLDEIVVFRPLTKEQIRQIVEIQLSYLRARLAEKRISLELTEAAKDFLAERGYDPVFGARPLRRVIQRELETPLAQKILAGEVKEGDRVQVDVGPAGLVFAVPARVEA
notes: ClpB from Thermus thermophilus, full-length protein; source: E. coli BL21 (DE3) RIL, purified
B4: ClpB NBD1-M wild type (domain or fragment)
chain: not shown
notes: ClpB from Thermus thermophilus, NBD1 and M-domain, amino acids 141-534; also called unlinked NBD1-M wild type; ClpB construct comprising residues 141-534; source: E. coli BL21 (DE3) RIL, purified
B5: ClpB NBD1-M R322A (domain or fragment)
chain: not shown
notes: ClpB from Thermus thermophilus, NBD1 and M-domain, amino acids 141-534; also called single mutant R322A; source: E. coli BL21 (DE3) RIL, purified
B6: ClpB NBD1-M R323A (domain or fragment)
chain: not shown
notes: ClpB from Thermus thermophilus, NBD1 and M-domain, amino acids 141-534; also called single mutant R323A; source: E. coli BL21 (DE3) RIL, purified
B7: ClpB NBD1-M R322A/R323A (domain or fragment)
chain: not shown
notes: ClpB from Thermus thermophilus, NBD1 and M-domain, amino acids 141-534; also called double mutant; source: E. coli BL21 (DE3) RIL, purified
B8: cross-linked NBD1-M dimer wild-type (P221C/M394C disulfide) (complex)
chain 1: B1 chain
chain 2: not shown
modifications: intermolecular disulfide bond between P221C of this chain and M394C of the other chain | intermolecular disulfide bond between M394C of this chain and P221C of the other chain
notes: ClpB from Thermus thermophilus, NBD1 and M-domain, amino acids 141-534; also called cross-linked wild-type dimer; P221C/M394C dimer; source: E. coli BL21 (DE3) RIL, purified; the two cysteine variants oxidised with copper phenanthroline, dimer separated on Superdex 200

Experiments:
ClpB NBD1-M M394C = biological target: T1, ClpB NBD1-M M394C (Thermus thermophilus, UniProt Q9RA63 141-534, M394C); test: cross-linking; intermolecular disulfide between two single-cysteine variants, 50 μM each, 50 μM copper phenanthroline, 2 mM ADP, 50 mM Tris/HCl pH 7.5, 50 mM KCl, 5 mM MgCl2, 1 h at 37 °C; dimer separated on Superdex 200 26/60, non-reducing SDS-PAGE; details: both partners purified
T1 construct: ClpB from Thermus thermophilus, NBD1 and M-domain, amino acids 141-534; source: E. coli BL21 (DE3) RIL, purified

ClpB NBD1-M A390C = biological target: T2, ClpB NBD1-M A390C (Thermus thermophilus, UniProt Q9RA63 141-534, A390C); test: as above; details: both partners purified
T2 construct: ClpB from Thermus thermophilus, NBD1 and M-domain, amino acids 141-534; source: E. coli BL21 (DE3) RIL, purified

full-length ClpB M394C = biological target: T3, full-length ClpB M394C (Thermus thermophilus, UniProt Q9RA63 1-854, M394C); test: as above; details: both partners purified
T3 construct: ClpB from Thermus thermophilus, full-length protein; source: E. coli BL21 (DE3) RIL, purified

[1] = biological target: the molecule itself; test: dynamic light scattering; 1–30 μM protein (monomeric units) in buffer A with 2 mM ATP and an ATP-regenerating system (phosphoenolpyruvate, pyruvate kinase); self-association
[2] = biological target: the molecule itself; test: SEC-MALS; Superdex 200 10/300 GL with multiangle static light scattering (SLS), buffer A (50 mM Tris/HCl pH 7.5, 50 mM KCl, 5 mM MgCl2, 2 mM EDTA); running buffer nucleotide-free or with 2 mM ADP or 2 mM ATP; 40 μl of 100 μM injected, about 2 μM at the detector; self-association induced by nucleotide

Row | Binder | stoichiometry N [1] | also measured
1 | B1 |  | binding result (ClpB NBD1-M M394C): binds
2 | B2 |  | binding result (ClpB NBD1-M A390C): binds
3 | B3 |  | binding result (full-length ClpB M394C): binds
4 | B4 | 3 | 
5 | B5 | 2 | 
6 | B6 | 2 | 
7 | B7 | 2 | 
8 | B8 |  | stoichiometry N [2]: ~4 NBD1-M subunits (two cross-linked dimers)
